According to US9540613B2, “Methods for producing insulin-secreting beta cells from human pluripotent stem cells” (Wisconsin Alumni Research Foundation, priority 2013, dated 2017):

Columns and labels:
[1] = test system: human pluripotent stem cells; assay: Replacement of FGF2 by other FGFs in Stage 1 differentiation; format: cell-based; conditions: FGF used in Stage 1 medium
From the text: In some embodiments, the FGF used in Stage 1 is selected from the group consisting of FGF2, FGF4, FGF7, FGF10 and the mixtures thereof. […] Thus, one would use any one of FGF4, FGF7 and FGF10 to replace FGF2 in Stage 1. One may also use mixtures of two or more of FGF2, FGF4, FGF7 and FGF10 in this stage. In a specific embodiment, the FGF in Stage 1 is FGF2.

[2] = test system: PDX1 and insulin protein expression in H1 cells; assay: Flow cytometry of PDX1 and insulin protein expression at end of Stage 4; format: cell-based, human
From the text: To quantify insulin and PDX1 protein expression we optimized a flow cytometry assay. […] The INS-1 cell line is an immortalized pancreatic beta cell line that expresses both PDX1 and insulin. On the bottom left, is our negative control, unstained H1 cells differentiated for 18 days. On the right, is H1 cells differentiated by the current protocol through day 18 stained with Insulin-PB and PDX1-AF488. […] Only 8-11% of the cells are PDX1 and insulin double positive.
To examine protein expression we collected cells at the end of Stage 4 and examined them by flow cytometry.
Thus, the effect of Noggin is context dependent and synergistic with nicotinamide and Exendin-4.

[3] = test system: PDX1, NKX6.1, Neurogenin 3 and insulin gene expression; assay: QPCR gene expression of endoderm and pancreatic markers in differentiated cells; format: cell-based, human
Description: QPCR was performed at the end of Stage 4 ([…] Day 18) to examine gene expression of PDX1, a marker of pancreatic epithelium and progenitor cells, insulin, a marker of beta cells, and Sox9 which is expressed in the developing pancreatic epithelium. The gene expression is compared to undifferentiated cells collected at Day 0 and β-Actin is the internal control. […] Human Fetal Pancreas (HFP), gestation 14-20 weeks, is represented as a positive control.
In FIG. 19, the gene expression is compared to undifferentiated cells collected at Day 0 and B-Actin is the internal control. On the y axis is delta CT (instead of fold change), thus, the lower the value the greater the gene expression.
First, alterations at Stage 3 and 4 altered gene expression minimally. […] On the y axis is delta CT (instead of fold change), thus, the lower the value the greater the gene expression. […] In contrast the addition of Noggin at Stage 4, decreased PDX1 and NKX6.1 gene expression and increased Neurogenin 3 expression. There was no difference in insulin gene expression following the addition of Noggin to Stage 4.

[4] = test system: insulin protein expression; assay: Immunohistochemistry of insulin protein expression after Stage 4; format: cell-based, human; conditions: addition of Noggin at Stage 4
Description: Immunohistochemistry was performed at the end of Stage 4 (Day 18) to examine protein expression of Insulin and NKX6.1.

B1: FGF10: fibroblast growth factor family ligand (protein, UniProt O15520 38-208, looked up)
Fibroblast growth factor 10: QALGQDMVSPEATNSSSSSFSSPSSAGRHVRSYNHLQGDVRWRKLFSFTKYFLKIEKNGKVSGTKKENCPYSILEITSVEIGVVAVKAINSNYYLAMNKKGKLYGSKEFNNDCKLKERIEENGYNTYASFNWQHNGRQMYVALNGKGAPRRGQKTRRKNTSAHFLPMVVHS
effects in Stage 1 relative to FGF2 [1]: comparable to FGF2

B2: FGF7: fibroblast growth factor 7 (protein, UniProt P21781 32-194, looked up)
Fibroblast growth factor 7: CNDMTPEQMATNVNCSSPERHTRSYDYMEGGDIRVRRLFCRTQWYLRIDKRGKVKGTQEMKNNYNIMEIRTVAVGIVAIKGVESEFYLAMNKEGKLYAKKECNEDCNFKELILENHYNTYASAKWTHNGGEMFVALNQKGIPVRGKKTKKEQKTAHFLPMAIT
effects in Stage 1 relative to FGF2 [1]: comparable to FGF2

B3: Noggin: a protein which in humans is encoded by the NOG gene; inhibits TGF-β signal transduction (protein, UniProt Q13253 28-232, looked up)
Noggin: QHYLHIRPAPSDNLPLVDLIEHPDPIFDPKEKDLNETLLRSLLGGHYDPGFMATSPPEDRPGGGGGAAGGAEDLAELDQLLRQRPSGAMPSEIKGLEFSEGLAQGKKQRLSKKLRRKLQMWLWSQTFCPVLYAWNDLGSRFWPRYVKVGSCFSKRSCSVPEGMVCKPSKSVHLTVLRWRCQRRGGQRCGWIPIQYPIISECKCSC
double positive cells ([2]; Noggin in the context of ITSFINE): increases double positive cells | insulin expression ([2]; addition of Noggin at Stage 4 (ITSFINE)): increases insulin expression | double positive cells ([2]; addition of Noggin in the absence of nicotinamide and Exendin-4 (ITSFI)): does not further increase the double positive cells | NKX6.1 gene expression ([3]; addition of Noggin at Stage 4): decreased | Neurogenin 3 expression ([3]; addition of Noggin at Stage 4): increased | PDX1 gene expression ([3]; addition of Noggin at Stage 4): decreased | insulin gene expression ([3]; addition of Noggin to Stage 4): no difference | clustering and insulin protein expression [4]: increased clustering and insulin protein expression | hormonal status of insulin-expressing cells [4]: a majority of those cells are still polyhormonal

B4: FGF4: fibroblast growth factor family ligand (protein, UniProt P08620 31-206, looked up)
Fibroblast growth factor 4: APTAPNGTLEAELERRWESLVALSLARLPVAAQPKEAAVQSGAGDYLLGIKRLRRLYCNVGIGFHLQALPDGRIGGAHADTRDSLLELSPVERGVVSIFGVASRFFVAMSSKGKLYGSPFFTDECTFKEILLPNNYNAYESYKYPGMFIALSKNGKTKKGNRVSPTMKVTHFLPRL
effects in Stage 1 relative to FGF2 [1]: comparable to FGF2
